“Also recorded” adds a separate entry of the source. Where no end group is shown, it is not given here.

Test [1] addresses T1, GST-tagged PAH1 (paired amphipathic helix 1 domain of Sin3B) (UniProt Q62141 31-107).
T1 chain: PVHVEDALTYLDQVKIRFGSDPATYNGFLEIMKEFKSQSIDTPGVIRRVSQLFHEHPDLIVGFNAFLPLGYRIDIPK
Briefly: SPR.

The target of test [2] is T2, PAH1-FLAG (paired amphipathic helix 1 domain of Sin3B with a FLAG tag) (UniProt Q62141 31-107).
T2 chain: T1 chain
Briefly: SPR; brand-new sensor chip.

Test [3] concerns the target T2, PAH1-FLAG (paired amphipathic helix 1 …). Briefly: SPR; well-used sensor chip (about 100 regenerations).
The test system of test [4] is biotinylated REST. Briefly: SPR kinetics of PAH1 peptides on captured biotinylated REST (Biacore T200, SA chip). To be noted: for Ka (association rate) / Kd (dissociation rate): mean ± SEM, n = 3; for binding to biotinylated REST: SPR sensorgram, SA chip, 0.625 to 10 µM analyte. It counts as binding. An excerpt:
In order to validate a binding surface between Sin3B and REST, we utilized the structural information of PDB (2CZY) and designed longer peptides of binding surfaces with a tag and a protease recognition site as shown in Figure 1a. We asked the RIKEN Systems and Structural Biology Center (Yokohama, Japan) to generate recombinant peptides using E. coli. Finally, we obtained biotinylated REST, GST-PAH1 and PAH1-FLAG. In order to validate whether biotinylated REST binds two PAH1 peptides, we designed an SPR assay using a streptavidin (SA) sensor chip as shown in Figure 1b. Biotinylated REST should be bound as a ligand followed by the injection of PAH1 peptides as an analyte.
We chose the amino acid sequences of PAH1 and REST from information based on the crystal structure of a PAH1/REST complex (PDB: 2CZY). We then asked the scientists with the RIKEN institute to produce recombinant PAH1 and REST peptides. They generated recombinant peptides such as GST-PAH1, PAH1-FLAG and biotinylated REST using E. coli. We used these peptides in this study.
Values are expressed as the mean ± standard error of the mean (SEM) from indicated replicate samples in each experimental group and the experiments were replicated to ensure consistency. The statistical significance was determined using the Student’s t-test. Values marked as “*” were considered to be statistically significant if their p values were <0.00005. Signal-to-background ratio (S/B), signal-to-noise ratio (S/N) and Z’-factor were calculated by the formula described in our previous report. Additionally, the general criterion sufficient to perform HTS was validated in our previous report. In the SPR experiments, a statistical trend was considered to be statistically significant if its p-value was 1 > p > 0.05.

Test [5] relates to biotinylated REST. Description: TR-FRET PAH1-REST interaction (anti-GST/anti-FLAG-Eu3+ cryptate donor, SA-XL665 acceptor). It counts as binding. The settings on record: for TR-FRET signal: 665 nm normalized to 620 nm, PAH1 peptide and biotinylated REST 1 to 10,000 nM, n = 4; for dynamic range: TR-FRET 665/620 nm, 384-well, 20 µL, 50 mM Tris-HCl pH 7.6, with biotinylated REST; for S/B / S/N: n=4. An excerpt: Finally, in order to establish a high-throughput and high-dynamic-range assay mimicking the binding surface between PAH1 and REST, we tried to apply the TR-FRET method for monitoring the interaction as shown in Figure 3a. We chose Europium cryptate (Eu^3+)-conjugated antibodies against GST or FLAG as a donor and SA-conjugated XL665 (a phycobiliprotein pigment derived from red algae) as an acceptor, for TR-FRET. If GST-PAH1 or PAH1-FLAG binds biotinylated REST and then transfers Eu^3+’s energy to XL665, it results in a change of the wavelength from 620 nm (a […] fluorescence derived from Eu^3+ alone) to 665 nm (a long-lived fluorescence converted by FRET) (Figure 3a). […] We prepared a serial dilution of GST-PAH1 or PAH1-FLAG and biotinylated REST ranging from 1 to 10,000 nM (Figure 3b) and then determined the 665 nm fluorescence normalized to 620 nm. […] We also checked whether GST-PAH1-anti-GST-Eu^3+ or FLAG-PAH1-anti-FLAG-Eu^3+ complexes caused any FRET with XL665 (Supplementary Figure S1e), and could not observe any change in wells with these alone. We assigned thresholds for high-throughput and high-standard assay as signal-to-background ratio (S/B) and Z’ factors of more than 5 and 0.8, respectively. We narrowed down optimal conditions to GST-PAH1 at 10, 100, 1000 or 10,000 nM in the presence of biotinylated REST at 1000 or 10,000 nM and that PAH1-FLAG and biotinylated REST at 10,000 nM. The S/B, signal-to-noise ratio (S/N), Z’ factor and coefficient of variation (CV) are shown in the Supplementary Table S1. We also assigned stringent statistical significance and then identified similar results by the S/B and Z’ factor (Figure 3b). To exclude the possibility that Eu^3+ antibodies directly bound XL665 causing FRET, we also determined the fluorescence level in wells including anti-GST-Eu^3+ or anti-FLAG-Eu^3+ and XL665. […] The results were 772 ± 9.1 and 436 ± 9.1 665/620 nm, respectively (n = 6). Although we observed very good dynamic range data at 1 h after preparing reaction mixtures, we obtained similar high-dynamic range data even at 18 h after that (data not shown). From 10 to 1000 nM in the concentration of biotinylated REST, 1000 or 10,000 nM GST-PAH1 induced maximal signals (Figure 3b, left, light blue and orange). The dynamic range of the assay was 31-fold, whereas only 10,000 nM PAH1-FLAG was required for the same amount of biotinylated REST to provide a maximal response and the dynamic range was 7-fold (Figure 3b, right, orange). We ultimately succeeded in establishing a high-standard assay, especially using GST-PAH1 and biotinylated REST.
TR-FRET reagents were prepared by diluting the anti-GST Eu3+ cryptate or anti-FLAG Eu3+ cryptate and SA-XL665 in 50 mM Tris-HCl (pH 7.6) buffer containing 15 mM NaCl, 140 mM KCl, 0.5 mM MgCl2, 0.1% BSA and 0.8 M KF with and without biotinylated REST and each PAH1 peptide. The reaction mix was 20 µL in 384-well format according to the manufacturer’s instructions. The fluoride ion avoids interference with fluorescence properties by protecting free coordination sites between conjugate “cage” and europium ions. One hour or more after preparation, we measured the intensities at 665 and 620 nm wavelength using PHERAstar FS (BMG biotech, Offenburg, Germany).
Values are expressed as the mean ± standard error of the mean (SEM) from indicated replicate samples in each experimental group and the experiments were replicated to ensure consistency. The statistical significance was determined using the Student’s t-test. Values marked as “*” were considered to be statistically significant if their p values were <0.00005. Signal-to-background ratio (S/B), signal-to-noise ratio (S/N) and Z’-factor were calculated by the formula described in our previous report. Additionally, the general criterion sufficient to perform HTS was validated in our previous report. […]

In test [6] the test system is biotinylated REST. Briefly: SPR competitive binding, GST-PAH1 plus PAH1-FLAG on captured biotinylated REST. How it is done: In order to determine whether another PAH1 peptide, PAH1-FLAG, competitively binds biotinylated REST in the presence of GST-PAH1, we injected 10 µM GST-PAH1, 10 µM PAH1-FLAG or 5 µM GST-PAH1 and 5 µM PAH1-FLAG into the flow cell capturing biotinylated REST, all of which could change the sensorgram, even though their rates of association/dissociation were different (Figure 2c). […] As a result, the equal molarity of both PAH1 peptides changed the sensorgram-like intermediate form (Figure 2c). The association rate was faster than GST-PAH1, while the dissociation rate was slower than PAH1-FLAG.

[7] abbreviates: SPR Biacore T200, SA chip with biotinylated REST, brand-new sensor chip, analyte 0.625 to 10 µM, 30 µL/min, association 60 s, dissociation 2 min.
The mark [8] stands for this setting: TR-FRET, PAH1 10 nM, REST 1000 nM.
The mark [9] stands for this setting: TR-FRET, PAH1 10 nM, REST 10,000 nM.
Setting [10] is: TR-FRET, PAH1 100 nM, REST 1000 nM.
Setting [11] is: TR-FRET, PAH1 100 nM, REST 10,000 nM.
Where [12] appears, read: TR-FRET, PAH1 1000 nM, REST 1000 nM.
Where [13] appears, read: TR-FRET, PAH1 1000 nM, REST 10,000 nM.
[14] abbreviates: TR-FRET, PAH1 10,000 nM, REST 1000 nM.
Setting [15] is: TR-FRET, PAH1 10,000 nM, REST 10,000 nM.
Setting [16] is: SPR, well-used sensor chip (after around 100 regenerations) with biotinylated REST.

For the molecule APQLIMLANVALTGE (also: biotin, site not given here) [biotinylated REST peptide (RE-1 silencing transcription factor, binding surface for Sin3B PAH1)], the results for the dissociation constant (Kd) in test [1], in test [2] and in test [3] were 0.000468 µM, 2.03 µM and 1.69 µM, respectively.

B1: GST-PAH1: recombinant glutathione S-transferase (GST)-tagged PAH1 peptide of Sin3B, produced in E. coli (protein)
chain: T1 chain
modifications: left off: GST, end not stated, kept | histidine-tag-like sequence, end not stated, state not stated
notes: recombinant glutathione S-transferase (GST)-tagged PAH1 peptide of Sin3B, produced in E. coli
In turn, B1 had a Ka (association rate) with biotinylated REST [4] (setting [7]) of 2.38e+06 ± 6.7e+11 M⁻¹ s⁻¹. Also, in the test on biotinylated REST [4] (setting [7]), the “Kd (dissociation rate)” value is 1.35 ± 0.82 × 10^−3 1/s. The “association and dissociation with biotinylated REST” value in the test with biotinylated REST [4] (SPR sensorgram after ligand capturing, GST-PAH1 10 µM) was “robust association and subsequent dissociation”. In addition, the “binding to biotinylated REST” value with biotinylated REST [4] is listed as “bound biotinylated REST in a concentration-dependent manner”. Further, in the test with biotinylated REST [4] (SPR, statistical comparison GST-PAH1 vs PAH1-FLAG, Student's t-test), the “affinity/association compared with PAH1-FLAG” value was “not significant but had a slower trend than PAH1-FLAG, resulting in a significantly increased affinity to REST; also recorded: significantly greater than that of PAH1-FLAG”. Also, the “TR-FRET signal” value in the test on biotinylated REST [5] is “substantial signals; also recorded: remarkably higher dynamic range and accuracy”. In the test on biotinylated REST [5], this molecule displayed a dynamic range of 31 fold. Moreover, the S/B in the test on biotinylated REST [5] (setting [8]) was 26.6; in the test with biotinylated REST [5] (setting [9]), 24.2; in the test with biotinylated REST [5] (setting [10]), 27.0; in the test with biotinylated REST [5] (setting [11]), 26.7; in the test with biotinylated REST [5] (setting [12]) it was 29.2; in the test on biotinylated REST [5] (setting [13]), 31.1. For the same molecule, the S/B with biotinylated REST [5] (setting [14]) was determined as 7.7; with biotinylated REST [5] (setting [15]) it was 11.7. Besides, the S/N with biotinylated REST [5] (setting [8]) is on record as 469.9; in the test on biotinylated REST [5] (setting [9]), 1,114.3; in the test on biotinylated REST [5] (setting [10]) it was 478.7; in the test on biotinylated REST [5] (setting [11]) it was 1230.7; in the test on biotinylated REST [5] (setting [12]) it was 517.8; with biotinylated REST [5] (setting [13]) it was 1441.0. Besides, the S/N is given as 123.9 with biotinylated REST [5] (setting [14]) and 515.1 with biotinylated REST [5] (setting [15]).

B2: PAH1-FLAG: recombinant FLAG-tagged PAH1 peptide of Sin3B, produced in E. coli (protein)
chain: T1 chain
modifications: left off: FLAG, end not stated, kept | histidine-tag-like sequence, end not stated, state not stated
notes: recombinant FLAG-tagged PAH1 peptide of Sin3B, produced in E. coli
B2: in the test with biotinylated REST [4] (setting [7]), the “Ka (association rate)” value is 1.93 ± 0.17 × 10^3 Ms and the “Kd (dissociation rate)” value was 3.83 ± 0.39 × 10^−3 1/s. Also, in the test on biotinylated REST [4], the “binding to biotinylated REST” value is reported as “bound biotinylated REST in a concentration-dependent manner”. Moreover, in the test with biotinylated REST [4] (setting [16]), the “Ka (association rate)” value is 2.31 ± 0.78 × 10^3 Ms and the “Kd (dissociation rate)” value is listed as 3.59 ± 0.13 × 10^−3 1/s. In addition, the “affinity on well-used vs brand new chip” value in the test on biotinylated REST [4] (SPR, PAH1-FLAG, well-used vs brand-new chip with REST) is “not significantly different, but had a trend of lower affinity when compared to the brand new one”. Further, the “competitive binding to biotinylated REST” value with biotinylated REST [6] (10 µM GST-PAH1, 10 µM PAH1-FLAG or 5 µM of each) was “shares the same binding surface as GST-PAH1”. The “rates of association and dissociation vs GST-PAH1” value with biotinylated REST [6] (10 µM each) is “far more quickly than in GST-PAH1”. In addition, in the test with biotinylated REST [5], the “TR-FRET signal” value was “fewer signals only at high reagent concentrations” and the dynamic range is 7 fold. The molecule also showed a S/N with biotinylated REST [5] (setting [15]) of 165.3. The “concentration inducing maximal signal” value in the test with biotinylated REST [5] (TR-FRET, biotinylated REST 10 to 1000 nM) was 10,000 nM.
